Target: CK2β^1–193-pAzF coupled to fluorescein (human) (UniProt P67870)
Assay: MST; B2 titrated (7.6 nM to 125 or 250 µM) to 100 nM fluorophore-labelled CK2α-DBCO-Sulfo-Cy5 or CK2β^1-193-Flu; 50 mM Tris/HCl pH 7.5, 25 mM NaCl, 20 mM MgCl2, Tween-20, DMSO; 37 °C, MST power 60%; Monolith NT.115; three independent measurements

DCRGLIVMIKLH [peptide B2 (free synthetic peptide)]
Kd: > 100 µM

Reference: publication PMC5374410, “Identification of a Potent Allosteric Inhibitor of Human Protein Kinase CK2 by Bacterial Surface Display Library Screening” (Pharmaceuticals, 2017)
